Measurements taken from patent US20250249120A1 (CHILDREN S HEALTH CARE D B A CHILDREN S MINNESOTA, published 2025).

Molecular target: T1, CD179a (VpreB1) component of the pre-BCR surrogate light chain, on B-ALL cells (human, UniProt P12018 20-145)
T1 sequence (looked up): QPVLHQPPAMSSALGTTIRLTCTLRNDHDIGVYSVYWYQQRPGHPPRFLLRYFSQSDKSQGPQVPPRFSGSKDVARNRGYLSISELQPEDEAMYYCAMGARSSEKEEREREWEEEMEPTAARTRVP
Assay: cell-based or functional assay

B1: calicheamicin-based antibody-drug conjugate (ADC) against CD179a (antibody, human IgG1, kappa, V domains shown)
VH: EVQLVESGGGLVKPGGSLRLSCAASGFTFSNFEMNWVRQAPGKGLEWVSGISSNGRYINYADSVKGRFTISRDNAKNSLYLQMNSLRAEDTAVYYCARVVDFDQDYNGFDYWGQGTLVTVSS
VL: DIQLTQSPSFLSASVGDRVTITCRASQGISTDLNWYQQKPGKAPKLLIYAASNLESGVPSRFSGSGSGTEFTLTISSLQPEDFATYYCQQSYNWPYTFGGGTKVEIKR
modifications: AcBut-calicheamicin linker-payload, DAR of 5:1, conjugated residues not stated
IC50 (the inhibitory concentration that causes 50% of cells to die), Nalm6 B-ALL cell line: 59 ng/mL
